Results as given in US20240374746A1 (TALLAC THERAPEUTICS, published 2024).

Legend:
[1] = target: T1, human SIRP-α V2 D1 domain-6His (human); assay: SPR (Biacore 8K), conjugate captured on Protein A chip, His-tagged SIRP-α as analyte, single cycle kinetics; pH 7.4, 25 C
T1 construct: also called Analyte B
Description: (§1) Binding of the anti-SIRP-α antibody conjugate was measured using a Biacore 8K high throughput, high-sensitivity SPR system (Cytiva, Global Life Sciences Solutions USA LLC, Marlborough, MA) equipped with S-type sensor chips. The interaction of the conjugate with SIRP-α was analyzed by flowing His-tagged SIRP-α over Protein A captured anti-SIRP-α antibody conjugate on a Biacore Series S Protein A Sensor Chip. The anti-SIRP-α antibody portion of the conjugate comprised a heavy chain comprising the sequence of SEQ ID NO:66 and a light chain comprising the sequence of SEQ ID NO:73 conjugated to CpG oligo 7-7 (SEQ ID NO: 35).
(§2) All SIRP-α analytes were injected in single cycle kinetics mode at nominal starting concentrations of 100 nM with 3-fold serial dilutions with the exception of rat SIRP-α. Higher starting concentration of 300 nM was used for assessing binding to rat SIRP-α at pH 7.4. Association times were monitored for 120 s, and dissociation times were monitored 600 s at 30 μL/min flow rate. The surfaces were regenerated with 75 mM phosphoric acid at pH1.65 for two pulses of 15 s at 30 μL/min flow rate. Experiments were done at either 25° C. or 37° C. and at pH 6.0 or 7.4. Assay buffers were 1×PBS 0.01% Tween-20 at pH 6.0 with and 1×HBS-EP+ (10 mM HEPES, pH7.4, 150 mM NaCl, 3 mM EDTA, 0.05% (v/v) Surfactant P20) at pH 7.4. All data points were collected in duplicate or greater.
(§3) The data were processed and analyzed with Biacore 8K Evaluation Software Version 4.0.8.20368 (Cytiva, Global Life Sciences Solutions USA LLC, Marlborough, MA). Reference responses from flow cell 1 were subtracted from the active responses from flow cell 2 to obtain the subtracted data (2-1). The responses from the nearest buffer blank injection were then subtracted from the reference subtracted data (2-1) to yield double-referenced data. These double-reference data were fit to a simple 1:1 Langmuir binding model with mass transport to determine the apparent association (ka) and dissociation rate constants (kd). The apparent equilibrium dissociation constant or affinity constant was then calculated based on their ratio as (KD=kd/ka).

[2] = target: T2, Mouse SIRP-α normal D1 domain-6His (mouse); assay: as above
T2 construct: also called Analyte D
T2 chain: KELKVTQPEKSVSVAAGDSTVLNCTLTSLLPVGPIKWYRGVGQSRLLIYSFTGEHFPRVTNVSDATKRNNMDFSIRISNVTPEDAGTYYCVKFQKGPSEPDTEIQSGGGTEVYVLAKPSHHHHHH
Description: as §1, §2, §3

[3] = target: T3, Rat SIRP-α K32-N373-ECD-6His (rat, UniProt P97710 32-373); assay: as above
T3 construct: K32-N373 in the name counts on the natural rat protein; also called Analyte E; Rat SIRPα-ECD
T3 sequence: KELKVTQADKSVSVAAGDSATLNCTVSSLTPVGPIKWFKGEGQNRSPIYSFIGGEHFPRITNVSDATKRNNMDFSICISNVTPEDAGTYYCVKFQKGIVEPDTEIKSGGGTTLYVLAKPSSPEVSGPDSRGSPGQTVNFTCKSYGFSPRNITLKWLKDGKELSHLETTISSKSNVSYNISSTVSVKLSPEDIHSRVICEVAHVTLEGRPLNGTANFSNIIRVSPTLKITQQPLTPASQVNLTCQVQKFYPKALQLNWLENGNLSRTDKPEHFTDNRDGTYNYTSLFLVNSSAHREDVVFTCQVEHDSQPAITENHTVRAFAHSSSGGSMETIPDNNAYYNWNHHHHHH
Description: as §1, §2, §3

[4] = target: T4, Cyno SIRP-α V4 D1 domain-6His-Avi (cynomolgus, limits assumed); assay: as above
T4 construct: also called Analyte C
T4 chain: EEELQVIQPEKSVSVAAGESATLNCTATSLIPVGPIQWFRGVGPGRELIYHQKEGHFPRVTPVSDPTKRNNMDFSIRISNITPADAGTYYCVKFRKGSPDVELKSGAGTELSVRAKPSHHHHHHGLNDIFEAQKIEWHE
Description: as §1, §2, §3

[5] = target: T5, human SIRP-α V1 D1 domain-6His (human, UniProt P78324 31-149); assay: as above
T5 construct: also called Analyte A
Description: as §1, §2, §3

[6] = target: T1, human SIRP-α V2 D1 domain-6His; assay: SPR (Biacore 8K), conjugate captured on Protein A chip, His-tagged SIRP-α as analyte, single cycle kinetics; pH 6.0, 37 C
Description: as §1, §2, §3

[7] = target: T2, Mouse SIRP-α normal D1 domain-6His; assay: as above
Description: as §1, §2, §3

[8] = target: T3, Rat SIRP-α K32-N373-ECD-6His; assay: as above
Description: as §1, §2, §3

[9] = target: T4, Cyno SIRP-α V4 D1 domain-6His-Avi; assay: as above
Description: as §1, §2, §3

[10] = target: T5, human SIRP-α V1 D1 domain-6His; assay: as above
Description: as §1, §2, §3

[11] = target: T1, human SIRP-α V2 D1 domain-6His; assay: SPR (Biacore 8K), conjugate captured on Protein A chip, His-tagged SIRP-α as analyte, single cycle kinetics; pH 6.0, 25 C
Description: as §1, §2, §3

[12] = target: T2, Mouse SIRP-α normal D1 domain-6His; assay: as above
Description: as §1, §2, §3

[13] = target: T3, Rat SIRP-α K32-N373-ECD-6His; assay: as above
Description: as §1, §2, §3

[14] = target: T4, Cyno SIRP-α V4 D1 domain-6His-Avi; assay: as above
Description: as §1, §2, §3

[15] = target: T5, human SIRP-α V1 D1 domain-6His; assay: as above
Description: as §1, §2, §3

[16] = target: T1, human SIRP-α V2 D1 domain-6His; assay: SPR (Biacore 8K), conjugate captured on Protein A chip, His-tagged SIRP-α as analyte, single cycle kinetics; pH 7.4, 37 C
Description: as §1, §2, §3

[17] = target: T2, Mouse SIRP-α normal D1 domain-6His; assay: as above
Description: as §1, §2, §3

[18] = target: T3, Rat SIRP-α K32-N373-ECD-6His; assay: as above
Description: as §1, §2, §3

[19] = target: T4, Cyno SIRP-α V4 D1 domain-6His-Avi; assay: as above
Description: as §1, §2, §3

[20] = target: T5, human SIRP-α V1 D1 domain-6His; assay: as above
Description: as §1, §2, §3

T5 sequence (P78324 other isoform, or with tags, fused parts or gaps limits assumed): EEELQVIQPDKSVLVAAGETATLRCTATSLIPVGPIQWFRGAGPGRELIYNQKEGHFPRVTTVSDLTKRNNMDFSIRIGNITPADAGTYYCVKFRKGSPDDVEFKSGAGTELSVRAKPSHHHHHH
T1 sequence (chain, as listed by the source limits assumed): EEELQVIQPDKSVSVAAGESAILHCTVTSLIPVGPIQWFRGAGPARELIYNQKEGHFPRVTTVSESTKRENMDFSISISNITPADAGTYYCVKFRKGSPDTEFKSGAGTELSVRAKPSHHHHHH

B1: anti-SIRP-α antibody-CpG oligonucleotide conjugate (human IgG4 heavy chain SEQ ID NO:66, light chain SEQ ID NO:73, conjugated to CpG oligo 7-7, SEQ ID NO:35) (antibody, V domains shown)
VH: EVQLVESGGGVVQPGGSLRLSCAASGFTFSSNAMSWVRQAPGKGLEWVAGISAGGSDTYYPASVKGRFTISRDNSKNTLYLQMNSLRAEDTAVYYCARETWNHLFDYWGQGTLVTVSS
VL: SYELTQPPSVSVSPGQTARITCSGGSYSSYYYAWYQQKPGQAPVTLIYSDDKRPSNIPERFSGSSSGTTVTLTISGVQAEDEADYYCGGYDQSSYTNPFGGGTKLTVLG
modifications: CpG oligo 7-7 (SEQ ID NO:35) with PEG linker attached by an amide bond to the glutamine of the C-terminal Q-tag RPQGFGPP; the general method pools DAR1 fractions (one CpG per antibody)
notes: The oligonucleotide payload is not a protein; also called anti-SIRP-α antibody conjugate; anti-hIgG4 SIRP-α conjugate
Kd [1]: 0.23 nM
Kd [2]: 0.69 nM
Kd [3]: 61.4 nM
Kd [4]: 0.45 nM
Kd [5]: 0.1 nM
Kd [6]: 0.01 nM
Kd [7]: 0.07 nM
Kd [8]: 8.5 nM
Kd [9]: 0.1 nM
Kd [10]: < 0.001 nM
Kd [11]: < 0.001 nM
Kd [12]: < 0.001 nM
Kd [13]: 3.8 nM
Kd [14]: 0.05 nM
Kd [15]: < 0.001 nM
Kd [16]: 0.51 nM
Kd [17]: 1.63 nM
Kd [18]: 175 nM
Kd [19]: 0.71 nM
Kd [20]: 0.28 nM
